{"source": "FireProtDB (doi:10.1111/j.1432-1033.1995.tb20713.x)", "proteins": {"B1": {"name": "Adenylate kinase wild type, P07170 (protein)", "chain": "MSSSESIRMVLIGPPGAGKGTQAPNLQERFHAAHLATGDMLRSQIAKGTQLGLEAKKIMDQGGLVSDDIMVNMIKDELTNNPACKNGFILDGFPRTIPQAEKLDQMLKEQGTPLEKAIELKVDDELLVARITGRLIHPASGRSYHKIFNPPKEDMKDDVTGEALVQRSDDNADALKKRLAAYHAQTEPIVDFYKKTGIWAGVDASQPPATVWADILNKLGKD"}}, "details": "Saccharomyces cerevisiae (strain ATCC 204508 / S288c), Fluorescence, reversible: yes, whole UniProt chain shown", "key": {"[1]": {"details": "pH 4.6, Thermal, Acetic acid-NaOH 30 mM"}, "[2]": {"details": "pH 7.5, 5.2 °C, GdnHCl, MOPS-NaOH 30 mM"}, "[3]": {"details": "pH 7.5, 10.2 °C, GdnHCl, MOPS-NaOH 30 mM"}, "[4]": {"details": "pH 7.5, 15.2 °C, GdnHCl, MOPS-NaOH 30 mM"}, "[5]": {"details": "pH 7.5, Thermal, MOPS-NaOH 30 mM"}}, "data": [{"protein": "B1", "values": [{"measurement": "unfolding free energy", "setting": "pH 4.6, 25 °C, Thermal, Acetic acid-NaOH 30 mM", "value": 2.15, "unit": "kcal/mol"}, {"measurement": "Tm", "setting": "[1]", "value": 48.6, "unit": "°C"}, {"measurement": "unfolding enthalpy (van 't Hoff)", "setting": "[1]", "value": 57.4, "unit": "kcal/mol"}, {"measurement": "denaturant m value", "setting": "[2]", "value": 5.28, "unit": "kcal/mol/M"}, {"measurement": "denaturant midpoint (higher = more stable)", "setting": "[2]", "value": 0.76, "unit": "M"}, {"measurement": "unfolding free energy", "setting": "[2]", "value": 3.97, "unit": "kcal/mol"}, {"measurement": "denaturant m value", "setting": "[3]", "value": 6.98, "unit": "kcal/mol/M"}, {"measurement": "denaturant midpoint (higher = more stable)", "setting": "[3]", "value": 0.7, "unit": "M"}, {"measurement": "unfolding free energy", "setting": "[3]", "value": 4.9, "unit": "kcal/mol"}, {"measurement": "denaturant m value", "setting": "[4]", "value": 7.29, "unit": "kcal/mol/M"}, {"measurement": "denaturant midpoint (higher = more stable)", "setting": "[4]", "value": 0.75, "unit": "M"}, {"measurement": "unfolding free energy", "setting": "[4]", "value": 5.47, "unit": "kcal/mol"}, {"measurement": "unfolding free energy", "setting": "pH 7.5, 25 °C, Thermal, MOPS-NaOH 30 mM", "value": 3.82, "unit": "kcal/mol"}, {"measurement": "Tm", "setting": "[5]", "value": 47.7, "unit": "°C"}, {"measurement": "unfolding enthalpy (van 't Hoff)", "setting": "[5]", "value": 81.3, "unit": "kcal/mol"}]}]}
